Laboratory results published in patent publication US20200216495A1 (ADRX, published 2020).
Values joined by “and” are separate entries in the source; they are usually repeats but may differ in a detail not shown here. Equal entries are not always repeated. Square brackets hold non-standard residues; d marks the D form. Ends that are not written are not given here.

B1: fklwlrwf (peptide)
peptide: [dF][dK][dL][dW][dL][dR][dW][dF]
B2: feirlhhw (peptide)
peptide: [dF][dE][dI][dR][dL][dH][dH][dW]
B3: frlwihwf (peptide)
peptide: [dF][dR][dL][dW][dI][dH][dW][dF]
B4: klkwlw (peptide)
peptide: [dK][dL][dK][dW][dL][dW]
B5: lhiklkhf (peptide)
peptide: [dL][dH][dI][dK][dL][dK][dH][dF]
B6: lkiriehy (peptide)
peptide: [dL][dK][dI][dR][dI][dE][dH][dY]
B7: lkifihyh (peptide)
peptide: [dL][dK][dI][dF][dI][dH][dY][dH]
B8: kirihyhl (peptide)
peptide: [dK][dI][dR][dI][dH][dY][dH][dL]
B9: yrlkvrw (peptide)
peptide: [dY][dR][dL][dK][dV][dR][dW]
B10: yhvkfrhw (peptide)
peptide: [dY][dH][dV][dK][dF][dR][dH][dW]
B11: wnlkvnw (peptide)
peptide: [dW][dN][dL][dK][dV][dN][dW]
B12: kirihyh (peptide)
peptide: [dK][dI][dR][dI][dH][dY][dH]
B13: felklrwh (peptide)
peptide: [dF][dE][dL][dK][dL][dR][dW][dH]
B14: lkirih (peptide)
peptide: [dL][dK][dI][dR][dI][dH]
B15: whvrirhv (peptide)
peptide: [dW][dH][dV][dR][dI][dR][dH][dV]
B16: ihyhrikl (peptide)
peptide: [dI][dH][dY][dH][dR][dI][dK][dL]
B17: yrvriqhi (peptide)
peptide: [dY][dR][dV][dR][dI][dQ][dH][dI]
B18: frvkiehw (peptide)
peptide: [dF][dR][dV][dK][dI][dE][dH][dW]
B19: leikirhw (peptide)
peptide: [dL][dE][dI][dK][dI][dR][dH][dW]
B20: wrlrvw (peptide)
peptide: [dW][dR][dL][dR][dV][dW]
B21: wrhkvrw (peptide)
peptide: [dW][dR][dH][dK][dV][dR][dW]
B22: wlkvrw (peptide)
peptide: [dW][dL][dK][dV][dR][dW]
B23: ekirihy (peptide)
peptide: [dE][dK][dI][dR][dI][dH][dY]
B24: rlkwrw (peptide)
peptide: [dR][dL][dK][dW][dR][dW]
B25: wrlkhrw (peptide)
peptide: [dW][dR][dL][dK][dH][dR][dW]
B26: lrieiewh (peptide)
peptide: [dL][dR][dI][dE][dI][dE][dW][dH]
B27: klklrw (peptide)
peptide: [dK][dL][dK][dL][dR][dW]
B28: wrlwihww (peptide)
peptide: [dW][dR][dL][dW][dI][dH][dW][dW]
B29: fhieirhf (peptide)
peptide: [dF][dH][dI][dE][dI][dR][dH][dF]
B30: yrirlehv (peptide)
peptide: [dY][dR][dI][dR][dL][dE][dH][dV]
B31: whvrlnhl (peptide)
peptide: [dW][dH][dV][dR][dL][dN][dH][dL]
B32: lkirihah (peptide)
peptide: [dL][dK][dI][dR][dI][dH][dA][dH]
B33: wrllvrww (peptide)
peptide: [dW][dR][dL][dL][dV][dR][dW][dW]
B34: lkvrww (peptide)
peptide: [dL][dK][dV][dR][dW][dW]
B35: yririnhl (peptide)
peptide: [dY][dR][dI][dR][dI][dN][dH][dL]
B36: wrfhihfy (peptide)
peptide: [dW][dR][dF][dH][dI][dH][dF][dY]
B37: felrikhy (peptide)
peptide: [dF][dE][dL][dR][dI][dK][dH][dY]
B38: wqlqvrw (peptide)
peptide: [dW][dQ][dL][dQ][dV][dR][dW]
B39: rihyhlki (peptide)
peptide: [dR][dI][dH][dY][dH][dL][dK][dI]
B40: wrlkvew (peptide)
peptide: [dW][dR][dL][dK][dV][dE][dW]
B41: vkvwgrlw (peptide)
peptide: [dV][dK][dV][dW]G[dR][dL][dW]
modifications: not fully specified (residue 5); printed as vkvwgrlw
B42: frlriwwf (peptide)
peptide: [dF][dR][dL][dR][dI][dW][dW][dF]
B43: wrvhfehw (peptide)
peptide: [dW][dR][dV][dH][dF][dE][dH][dW]
B44: rlrihw (peptide)
peptide: [dR][dL][dR][dI][dH][dW]
B45: klkikw (peptide)
peptide: [dK][dL][dK][dI][dK][dW]
B46: fhleirhw (peptide)
peptide: [dF][dH][dL][dE][dI][dR][dH][dW]
B47: klkivw (peptide)
peptide: [dK][dL][dK][dI][dV][dW]
B48: rirlhw (peptide)
peptide: [dR][dI][dR][dL][dH][dW]
B49: wikivr (peptide)
peptide: [dW][dI][dK][dI][dV][dR]
B50: rlkvww (peptide)
peptide: [dR][dL][dK][dV][dW][dW]
B51: fklhlkhy (peptide)
peptide: [dF][dK][dL][dH][dL][dK][dH][dY]
B52: fklklwwf (peptide)
peptide: [dF][dK][dL][dK][dL][dW][dW][dF]
B53: fwlrihwf (peptide)
peptide: [dF][dW][dL][dR][dI][dH][dW][dF]
B54: irihyhlk (peptide)
peptide: [dI][dR][dI][dH][dY][dH][dL][dK]
B55: ekirihyh (peptide)
peptide: [dE][dK][dI][dR][dI][dH][dY][dH]
B56: twrlvl (peptide)
peptide: [dT][dW][dR][dL][dV][dL]
B57: wwlklrww (peptide)
peptide: [dW][dW][dL][dK][dL][dR][dW][dW]
B58: welkvrw (peptide)
peptide: [dW][dE][dL][dK][dV][dR][dW]
B59: rlwvrw (peptide)
peptide: [dR][dL][dW][dV][dR][dW]
B60: tlkiew (peptide)
peptide: [dT][dL][dK][dI][dE][dW]
B61: lkirieyh (peptide)
peptide: [dL][dK][dI][dR][dI][dE][dY][dH]

Target: Tau40 P301L protein (human)
Assay: cell-based or functional assay

Binder | IC50, Tau40 assay (ThT)
B1 | 4.19 µM and 7.03 µM
B2 | 4.2 µM
B3 | 4.39 µM and 6.88 µM
B4 | 4.41 µM
B5 | 4.44 µM and 4.64 µM
B6 | 4.53 µM
B7 | 4.57 µM
B8 | 4.59 µM
B9 | 4.69 µM
B10 | 4.71 µM
B11 | 4.86 µM
B12 | 4.92 µM
B13 | 4.94 µM and 5.3 µM
B14 | 4.95 µM
B15 | 5.03 µM
B16 | 5.12 µM
B17 | 5.13 µM
B18 | 5.25 µM
B19 | 5.38 µM and 8.72 µM
B20 | 5.48 µM and 5.5 µM
B21 | 5.5 µM

Binder | IC50, Tau40 assay (ThT)
B22 | 5.51 µM
B23 | 5.58 µM
B24 | 5.62 µM
B25 | 5.86 µM
B26 | 5.89 µM and 9.68 µM
B27 | 5.92 µM and 5.99 µM
B28 | 5.99 µM and 7.56 µM
B29 | 6.06 µM
B30 | 6.3 µM
B31 | 6.39 µM
B32 | 6.41 µM
B33 | 6.46 µM
B34 | 6.48 µM
B35 | 6.5 µM
B36 | 6.53 µM and 7 µM
B37 | 6.57 µM and 12 µM
B38 | 6.57 µM
B39 | 6.63 µM
B40 | 6.67 µM
B41 | 6.72 µM
B42 | 6.85 µM and 10.8 µM

Binder | IC50, Tau40 assay (ThT)
B43 | 6.86 µM
B44 | 6.87 µM
B45 | 6.87 µM
B46 | 6.87 µM
B47 | 6.9 µM
B48 | 6.97 µM
B49 | 6.97 µM
B50 | 7.01 µM
B51 | 7.19 µM and 7.53 µM
B52 | 7.22 µM and 15 µM
B53 | 7.28 µM and 7.56 µM
B54 | 7.39 µM
B55 | 7.42 µM
B56 | 7.46 µM
B57 | 7.64 µM
B58 | 7.92 µM
B59 | 8.02 µM
B60 | 8.08 µM
B61 | 8.14 µM
